Laboratory results published in paper PMC9287719.
Like-named read-outs stand apart in the source and are kept apart here.

What was measured:
[1] = target: Recombinant FcγRI with C-terminus Biotin (human) (UniProt P12314); assay: BLI; Octet Red; biotinylated FcγR-AviTag loaded on Streptavidin biosensors (~0.5–1.0 nm); antibody in solution, 75 nM-1.17 nM for FcγRI, 5000 to 78.125 nM for the other receptors; PBST (PBS, 0.02% Tween20) pH 7.2; 60 s association, 60 s dissociation; steady state, one-site fit
[2] = target: Recombinant FcγRIIIa (F158) with C-terminus Biotin (human) (UniProt P08637); assay: as above
[3] = target: Recombinant FcγRIIa (H131) with C-terminus Biotin (human) (UniProt P12318); assay: as above
[4] = target: Recombinant FcγRIIa (R131) with C-terminus Biotin (human); assay: as above
[5] = target: Recombinant FcγRIIIa (V158) with C-terminus Biotin (human); assay: as above
[6] = target: Recombinant FcγRIIIa (F158) with C-terminus Biotin (human) (UniProt P08637)
[7] = target: Recombinant FcγRIIIa (V158) with C-terminus Biotin (human)
Target sequence in this assay (P08637 17-208 F176V): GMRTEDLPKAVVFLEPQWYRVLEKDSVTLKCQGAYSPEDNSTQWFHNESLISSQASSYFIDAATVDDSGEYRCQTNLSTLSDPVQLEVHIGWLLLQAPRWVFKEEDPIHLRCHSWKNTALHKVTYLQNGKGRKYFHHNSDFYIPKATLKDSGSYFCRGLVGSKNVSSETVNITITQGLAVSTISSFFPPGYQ

[8] = target: Recombinant FcγRIIa (H131) with C-terminus Biotin (human) (UniProt P12318)
[9] = target: Recombinant FcγRIIa (R131) with C-terminus Biotin (human) (UniProt P12318)
[10] = target: Recombinant FcγRIIb with C-terminus Biotin (human) (UniProt P31994); assay: other; qualitative only
[11] = target: Recombinant FcγRIIa (R131) with C-terminus Biotin (human) (UniProt P12318); remark: listed apart in the source
[12] = target: Recombinant FcγRIIb with C-terminus Biotin (human) (UniProt P31994)
[13] = target: Recombinant FcγRIIIa (F158) with C-terminus Biotin (human) (UniProt P08637); remark: listed apart in the source
[14] = target: Recombinant FcγRIIa (H131) with C-terminus Biotin (human) (UniProt P12318); remark: listed apart in the source
[15] = target: Recombinant FcγRIIIa (V158) with C-terminus Biotin (human); remark: listed apart in the source
Target sequence in this assay (P08637 17-208 F176V): as above

[16] = target: Recombinant FcγRIIIa (F158) with C-terminus Biotin (human) (UniProt P08637); remark: listed apart in the source
[17] = target: Recombinant FcγRIIa (H131) with C-terminus Biotin (human) (UniProt P12318); remark: listed apart in the source
[18] = target: Recombinant FcγRIIa (R131) with C-terminus Biotin (human) (UniProt P12318); remark: listed apart in the source
[19] = target: Recombinant FcγRI with C-terminus Biotin (human) (UniProt P12314)
[20] = target: Recombinant FcγRIIa (H131) with C-terminus Biotin (human) (UniProt P12318); remark: listed apart in the source
[21] = target: Recombinant FcγRIIa (R131) with C-terminus Biotin (human) (UniProt P12318); remark: listed apart in the source
[22] = target: Recombinant FcγRIIIa (F158) with C-terminus Biotin (human) (UniProt P08637); remark: listed apart in the source
[23] = target: Recombinant FcγRIIIa (V158) with C-terminus Biotin (human); remark: listed apart in the source
Target sequence in this assay (P08637 17-208 F176V): as above

[24] = target: Recombinant FcγRIIb with C-terminus Biotin (human) (UniProt P31994); remark: listed apart in the source
[25] = target: Recombinant FcγRIIIa (F158) with C-terminus Biotin (human) (UniProt P08637); remark: listed apart in the source
[26] = target: Recombinant FcγRIIIa (V158) with C-terminus Biotin (human); remark: listed apart in the source
Target sequence in this assay (P08637 17-208 F176V): as above

[27] = target: Recombinant FcγRIIa (H131) with C-terminus Biotin (human) (UniProt P12318); remark: listed apart in the source
[28] = target: Recombinant FcγRIIa (R131) with C-terminus Biotin (human) (UniProt P12318); remark: listed apart in the source
[29] = target: Recombinant FcγRI with C-terminus Biotin (human) (UniProt P12314); remark: listed apart in the source
[30] = target: Recombinant FcγRIIa (R131) with C-terminus Biotin (human) (UniProt P12318); details: domain or fragment
[31] = target: Recombinant FcγRI with C-terminus Biotin (human) (UniProt P12314); details: domain or fragment
[32] = target: Recombinant FcγRIIIa (F158) with C-terminus Biotin (human) (UniProt P08637); details: domain or fragment
[33] = target: Recombinant FcγRIIIa (V158) with C-terminus Biotin (human); details: domain or fragment
Target sequence in this assay (P08637 17-208 F176V): as above

[34] = target: Recombinant FcγRIIa (R131) with C-terminus Biotin (human) (UniProt P12318); remark: listed apart in the source
[35] = target: Recombinant FcγRIIIa (F158) with C-terminus Biotin (human) (UniProt P08637); remark: listed apart in the source
[36] = target: Recombinant FcγRIIIa (V158) with C-terminus Biotin (human); remark: listed apart in the source
Target sequence in this assay (P08637 17-208 F176V): as above

[37] = target: Recombinant FcγRIIa (H131) with C-terminus Biotin (human) (UniProt P12318); remark: listed apart in the source
[38] = target: Recombinant FcγRIIa (H131) with C-terminus Biotin (human) (UniProt P12318); remark: listed apart in the source
[39] = target: Recombinant FcγRIIa (R131) with C-terminus Biotin (human) (UniProt P12318); remark: listed apart in the source
[40] = target: Recombinant FcγRIIIa (F158) with C-terminus Biotin (human) (UniProt P08637); remark: listed apart in the source
[41] = target: Recombinant FcγRIIIa (V158) with C-terminus Biotin (human); remark: listed apart in the source

Chain of Recombinant FcγRIIb with C-terminus Biotin (human) (P31994 43-217): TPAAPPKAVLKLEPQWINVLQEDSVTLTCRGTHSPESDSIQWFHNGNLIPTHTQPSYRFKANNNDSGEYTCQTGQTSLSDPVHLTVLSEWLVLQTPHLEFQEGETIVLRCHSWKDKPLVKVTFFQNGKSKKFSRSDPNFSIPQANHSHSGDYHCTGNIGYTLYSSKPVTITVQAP
Chain of Recombinant FcγRI with C-terminus Biotin (human) (P12314 16-292): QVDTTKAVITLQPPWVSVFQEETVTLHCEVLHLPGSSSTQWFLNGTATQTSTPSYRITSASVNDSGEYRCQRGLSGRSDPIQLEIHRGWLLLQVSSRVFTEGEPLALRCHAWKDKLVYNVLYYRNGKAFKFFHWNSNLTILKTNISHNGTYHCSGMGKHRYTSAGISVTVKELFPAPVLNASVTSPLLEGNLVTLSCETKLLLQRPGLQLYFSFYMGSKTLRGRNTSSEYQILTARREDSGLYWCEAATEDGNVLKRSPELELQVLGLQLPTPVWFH
Chain of Recombinant FcγRIIa (R131) with C-terminus Biotin (human) (UniProt P12318) (P12318 34-217 H167R): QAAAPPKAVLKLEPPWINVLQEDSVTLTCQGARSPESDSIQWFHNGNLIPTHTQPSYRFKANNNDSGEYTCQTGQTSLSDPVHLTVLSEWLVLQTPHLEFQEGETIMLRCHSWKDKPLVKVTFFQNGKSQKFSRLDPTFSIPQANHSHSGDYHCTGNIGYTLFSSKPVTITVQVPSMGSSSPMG
Chain of Human IgG3 (P01860 whole entry, looked up): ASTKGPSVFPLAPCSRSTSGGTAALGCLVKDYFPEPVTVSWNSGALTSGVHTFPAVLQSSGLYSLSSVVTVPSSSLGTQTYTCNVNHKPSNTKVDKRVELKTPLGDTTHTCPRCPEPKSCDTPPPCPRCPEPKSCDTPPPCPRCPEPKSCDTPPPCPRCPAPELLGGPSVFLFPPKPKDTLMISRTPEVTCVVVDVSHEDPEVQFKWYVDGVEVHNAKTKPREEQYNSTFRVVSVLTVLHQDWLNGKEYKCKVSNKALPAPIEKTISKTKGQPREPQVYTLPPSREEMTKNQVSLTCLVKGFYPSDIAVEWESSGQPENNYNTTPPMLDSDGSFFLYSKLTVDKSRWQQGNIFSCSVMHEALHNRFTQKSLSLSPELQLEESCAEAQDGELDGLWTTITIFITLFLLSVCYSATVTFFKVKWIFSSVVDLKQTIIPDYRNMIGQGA
Chain of Recombinant FcγRIIa (H131) with C-terminus Biotin (human) (P12318 34-217): as the sequence (P12318 34-217 H167R) above, with R134H counted along it
Chain of Recombinant FcγRIIIa (F158) with C-terminus Biotin (human) (P08637 17-208): as the sequence (P08637 17-208 F176V) above, with V160F counted along it

Cetuximab (antibody)
Kd [1]: 17 nM | Kd [2]: 1300 nM | Kd [3]: 970 nM | Kd [4]: 1400 nM

Etanercept (Fc fusion)
Kd [1]: 14 nM | Kd [5]: 280 nM | Kd [3]: 410 nM | Kd [4]: 400 nM

Flebogamma (from UniProt P01857)
IC50 [6]: 111 nM | IC50 [7]: 15.2 nM | IC50 [8]: 37.3 nM | IC50 [9]: 117 nM | IC50 [10]: 918 nM

Gamunex (from UniProt P01857)
IC50 [11]: 204 nM | IC50 [12]: 2670 nM | IC50 [13]: 110 nM | IC50 [14]: 63.5 nM | IC50 [15]: 17 nM

Human IgG1 (from UniProt P01857)
IC50 [16]: 65 nM | IC50 [17]: 67 nM | IC50 [18]: 122 nM | IC50 [19]: 0.23 nM

Human IgG3 (from UniProt P01860)
IC50 [20]: 40.8 nM | IC50 [21]: 85 nM | IC50 [22]: 44.8 nM | IC50 [23]: 12.3 nM | IC50 [10]: 819 nM

Human IgG (human polyclonal IgG) (from UniProt P01857)
IC50 [24]: 989 nM | IC50 [25]: 99.4 nM | IC50 [26]: 15.7 nM | IC50 [27]: 4.64 nM | IC50 [28]: 25.8 nM | IC50 [29]: 0.11 nM

Human IgG Fc Fragment
IC50 [30]: 2280 nM | IC50 [31]: 0.56 nM | IC50 [32]: 342 nM | IC50 [33]: 81 nM

Infliximab (antibody)
Kd [1]: 21 nM | Kd [2]: 350 nM | Kd [5]: 120 nM | Kd [3]: 230 nM | Kd [4]: 340 nM

NIST mAb standard (antibody)
Kd [1]: 12 nM | Kd [5]: 420 nM | Kd [3]: 640 nM | Kd [4]: 800 nM

NIST mAb standard (from UniProt P01857)
IC50 [34]: 261 nM | IC50 [35]: 466 nM | IC50 [36]: 44.5 nM | IC50 [37]: 98.1 nM

Octagam (from UniProt P01857)
IC50 [38]: 80.9 nM | IC50 [39]: 249 nM | IC50 [40]: 131 nM | IC50 [41]: 18.9 nM | IC50 [10]: 2080 nM
